According to US20120156203A1 (Genentech, published 2012):

Tests used:
[1] = target: T1, mouse IL13 (mouse, UniProt P20109 22-131, limits assumed); test: ELISA on plate-coated E. coli expressed mouse IL13
T1 construct: also called E. coli expressed mouse IL13 (R&D Systems); murine IL13
T1 sequence: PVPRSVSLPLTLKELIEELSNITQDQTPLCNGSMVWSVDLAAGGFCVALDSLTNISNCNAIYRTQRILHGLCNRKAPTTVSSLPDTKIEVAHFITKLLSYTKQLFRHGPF
Experimental: (§1) The reactivity of various anti-IL13 monoclonal antibodies was tested by ELISA. Different wells of 96-well microtest plates were coated with either E. coli expressed non-glycosylated human IL13 (R&D Systems), 293T cell expressed glycosylated MT-IL13/Fc, or E. coli expressed mouse IL13 (R&D Systems) by the addition of 100 μL of IL13 protein at 0.1 μg/mL in PBS. After overnight incubation at room temperature, the wells were treated with PBSTB (PBST containing 2% BSA) to saturate the remaining binding sites. The wells were then washed with PBST.
(§2) One hundred microliters of two-fold serially diluted anti-IL13 MAbs (0.5 μg/mL (3.33 nM) to […] (0.00033 nM)) were added to the wells for 1 hour at room temperature. An anti-IL13 MAb JES-5A2 from (BD Biosciences-Pharmingen, San Diego, Calif.) was also tested as a positive control. This antibody was generated by using E. coli expressed human IL13 as immunogen. An isotype-matched mouse anti-HIV-1 gp120 MAb was used as irrelevant negative control. The wells were then washed with PBST. Bound antibody was detected by incubation with diluted HRP-goat anti-mouse IgG (Fc) (Jackson ImmunoResearch) for 1 hour at room temperature. Peroxidase substrate solution was then added for color development as described above. The OD₄₅₀ was measured using an ELISA reader.

[2] = target: T2, human IL13 (human, UniProt P35225 35-146); test: ELISA; wells coated with E. coli expressed non-glycosylated human IL13 (0.1 µg/mL); bound MAb detected with HRP-goat anti-mouse IgG (Fc); OD 450 nm
T2 construct: also called E. coli expressed non-glycosylated human IL13 (R&D Systems); recombinant IL13
Experimental: as §1, §2

[3] = target: T2, human IL13; test: cell-based or functional assay
[4] = target: T3, 12-mer peptide of human IL13, YCAALESLINVS (human, synthesized via SPOT on cellulose membrane); test: peptide spot analysis on cellulose membrane
T3 peptide: YCAALESLINVS
Description: This epitope was further confirmed by peptide spot analysis. The entire human IL13 peptide was scanned with a series of overlapping 12-mer peptides synthesized via SPOT on cellulose membrane. The only anti-IL13 MAb reactive peptide was identified as a 12-mer peptide of amino acid #44-56, […] (SEQ ID NO 19), which is overlapping with the region identified through domain swapping experiments.

[5] = target: T4, IL-13 (antigen captured on the plate in the Fab ELISAs of Examples 9 and 10) (UniProt P35225 35-146); test: ELISA; IL-13 captured on the plate in a limiting amount; Fab titrated 1:3; detected with a secondary antibody specific for Fab; A560 nm
T4 construct: also called the antigen IL-13

[6] = target: T4, IL-13 (antigen captured on the plate in …); test: as above; remark: listed apart in the source
[7] = target: T4, IL-13 (antigen captured on the plate in …); test: as above; remark: listed apart in the source
[8] = target: T4, IL-13 (antigen captured on the plate in …); test: ELISA; IL-13 captured on the plate in a limiting amount; Fab titrated 1:3; detected with a secondary antibody specific for Fab; A410 nm
[9] = target: T4, IL-13 (antigen captured on the plate in …); test: ELISA; IL-13 captured on the plate in a limiting amount; Fab titrated 1:3; detected with a secondary antibody specific for Fab; A 560 nm
[10] = target: T4, IL-13 (antigen captured on the plate in …); test: competition ELISA; IL-13 captured on the plate; purified Fab pre-mixed with a constant concentration of labeled chimeric anti-IL-13 Fab (228 B/C #3); Abs 590 nm of bound labeled Fab
Experimental: To confirm that these combinatorial candidates maintained function, a competition assay was performed. For this assay, IL-13 was captured on an ELISA plate. The candidates, which are purified Fabs, were pre-mixed in varying concentrations to a constant concentration of labeled chimeric anti-IL-13 Fab. This mixture was added to the ELISA plate. The labeled chimeric anti-IL-13 capable of binding to the plate-bound IL-13 were detected.

T4 sequence (P35225 35-146 limits assumed): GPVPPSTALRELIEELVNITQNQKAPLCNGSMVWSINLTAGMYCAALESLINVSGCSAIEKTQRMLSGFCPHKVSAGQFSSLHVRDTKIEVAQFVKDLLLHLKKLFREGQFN
T2 sequence (P35225 other isoform, or with tags, fused parts or gaps limits assumed): as the sequence (P35225 35-146 limits assumed) above, with Q110R counted along it

B1: anti-IL13 monoclonal antibody 227-26 (antibody, V domains shown)
VH: QVQLQQSGDDLVLPGASVKLSCKASGYTFTSYWINWIKQRPGQGLEWIGHIAPGSGSTYFNEMFKGKATLTVDTSSSTAYIQLSSLSSEDSAVYFCARSDIFLSYAMDYWGQGTSVTVSS
VL: DVLMTQTPLSLPVSLGDQASISCRSSQSIVHSNGNTYLQWYLQKPGQSPKLLIYKVSNRFSGVPDRFSGSGSGTDFTLKISRVEAEDLGVYYCFQGSHVPYTFGGGTKLEIK
notes: also called hybridoma ATCC PTA-5654
Does B1 bind [1]?
Result: no binding

What about the “EC50 (read off the curve)” value [2] of the same binder?
Its value is roughly 0.02 nM.

B2: anti-IL13 monoclonal antibody 228B/C-1 (antibody, V domains shown)
VH: QVQLQESGPGLVAPSQSLSITCTVSGFSLNAYSVNWVRQPPGKGLEWLGMIWGDGKIVYNSALKSRLNISKDSSKSQVFLKMSSLQSDDTARYYCAGDGYYPYAMDNWGHGTSVTVSS
VL: NIVLTQSPASLAVSLGQRATISCRASKSVDSYGNSFMHWYQQKPGQPPKLLIYLASNLESGVPARFSGSGSRTDFTLTIDPVEADDAASYYCQQNNEDPRTFGGGTKLEIK
Which results are given for B2?
molar stoichiometric ratio (MAb:IL13) for complete inhibition, CD14 and CD23 assays [3]: 0.5 MAb:IL13 molar ratio; molar stoichiometric ratio between 228B/C-1 and IL13 for complete inhibition, Stat6 assay [3]: ~0.5 MAb:IL13 molar ratio; binding result [4]: binds; EC50 (read off the curve) [2]: ~0.01 nM

B3: chimeric Fab of 228B/C (Fab, V domains shown)
VH: QVQLQESGPGLVAPSQSLSITCTVSGFSLNAYSVNWVRQPPGKGLEWLGMIWGDGKIVYNSALKSRLNISKDSSKSQVFLKMSSLQSDDTARYYCAGDGYYPYAMDNWGHGTSVTVSS
VL: NIVLTQSPASLAVSLGQRATISCRASKSVDSYGNSFMHWYQQKPGQPPKLLIYLASNLESGVPARFSGSGSRTDFTLTIDPVEADDAASYYCQQNNEDPRTFGGGTKLEIK
modifications: Used labeled in the competition assay of paragraph 260; the label is not named.
notes: also called chimeric clone
How did the “EC50 (read off the curve)” value [5] turn out when B3 was run?
Its value is roughly 10 ng/mL.

And the “EC50 (read off the curve)” value [6]?
The value was roughly 7 ng/mL.

And the “EC50 (read off the curve)” value [7]?
Its value is roughly 4 ng/mL.

What about the “EC50 (read off the curve)” value [8] of the same binder?
The value was roughly 20 ng/mL.

What about the “EC50 (read off the curve)” value [9] of the same binder?
Its value is roughly 7 ng/mL.

And the “IC50 (read off the curve)” value [10]?
The value was roughly 90 ng/mL.
